What all share (type): cell-based, rabbit
The subject of assay [1] is renal proximal tubule cells (RPTC). Briefly: RPTC outgrowth from plated renal proximal tubules (photographs). As to conditions: after 24 hr exposed for 24 hr, 50 μM suramin, 10 ng/ml EGF or suramin+EGF. As to the method:
(§1) Isolation and culture of renal proximal tubules: Isolation and culture of renal proximal tubules were performed as described previously (Rodeheaver et al., 1990; Nowak and Schnellmann, 1995; Nowak and Schnellmann, 1996). Female New Zealand White rabbits (1.5-2.5 kg) were purchased from Myrtle's Rabbitry (Thompson Station, Tenn.). RPTC were isolated using the iron oxide perfusion method and grown in 6-well tissue culture dishes under improved conditions. The culture medium was an 1:1 mixture of DMEM/Ham's F-12 (without glucose, phenol red, or sodium pyruvate) supplemented with 15 mM HEPES buffer, 2.5 mM L-glutamine, 1 μM pyridoxine HCl, 15 mM sodium bicarbonate, and 6 mM lactate. Hydrocortisone (50 μM), selenium (5 ng/ml), human transferrin (5 μg/ml) bovine insulin (10 nM) and L-ascorbic acid-2-phosphate (50 μM) were added daily to fresh culture medium.
(§2) Isolated tubules were plated at 1 mg protein/well in a 6-well plate. On day 2, RPTC were incubated in the presence and absence of various pharmacological inhibitors for different time periods as indicated in the figure legends. For some experiments, suramin was added to RPTC on day 3 and then incubated for 24 hr in the presence or absence of various inhibitors before samples were taken.

Assay [2] concerns EGF receptor. Briefly: Immunoblot of EGF receptor phosphorylation (Tyr1068) in RPTC. As to conditions: 50 μM suramin, 10 ng/ml EGF or both for 10 min. Here is the method:
Preparation of cell lysates and immunoblot analysis: After different treatments, RPTC were washed twice with PBS and harvested in lysis buffer (0.25 M Tris-HCl, pH 6.8, 4% SDS, 10% glycerol, 1 mg/ml bromophenol blue, and 0.5% 2-mercaptoethanol). Cells were disrupted by sonication for 15 seconds and lysates stored at −20 °C. Equal amounts of cellular protein lysate were separated on 10% polyacrylamide gels and transferred to nitrocellulose membranes. After treatment with 5% skim milk at 4 °C overnight, membranes were incubated with various antibodies for 1 hr, and then incubated with an appropriate horseradish-peroxidase conjugated secondary antibody (Amersham, Piscataway, N.J.). Bound antibodies were visualized following chemiluminescence detection on autoradiographic film.
To determine whether suramin caused EGF receptor activation, we performed immunoblot analysis using an antibody against phosphorylated tyrosine 1068 of the EGF receptor. Total EGF receptor content was measured using immunoblot analysis and an antibody that recognizes the EGF receptor independent of its phosphorylation state to control for gel loading. […] Thus, suramin induced RPTC proliferation and scattering is not through the EGF receptor.

Assay [3] concerns renal proximal tubule cells (RPTC). The assay can be described thus: RPTC scattering, fibroblast-like morphology and lamellipodia (bright field, phalloidin staining). As to conditions: 50 μM suramin or 10 ng/ml EGF, 24 hr, phalloidin staining. Here is the method:
as §1, §2
Immunocytochemistry: After various treatments, RPTC were fixed with 10% buffered formalin, washed, permeabilized, and blocked with BSA. […]

Assay [4] shares this test system. Briefly: Cell cycle analysis by flow cytometry: number of RPTC in S-phase. As to conditions: 24 hr treatment, four days following plating; suramin 50 μM, EGF 10 ng/ml; untreated approximately 20%. As to the method:
as §1
Isolated tubules were plated at 1 mg protein/well in a 6-well plate. On day 2, RPTC were incubated in the presence and absence of various pharmacological inhibitors for different time periods as indicated in the figure legends. […]
Cell cycle analysis: Cell cycle phase was determined using flow cytometry as previously described (Zhuang et al., 2004). Cells were harvested, stained with propidium iodide and the number of cells in S-phase of cell cycle determined.

B1: EGF: Human recombinant EGF (epidermal growth factor) from R & D systems (protein, UniProt P01133 23-1207, looked up)
Pro-epidermal growth factor: PQHWSCPEGTLAGNGNSTCVGPAPFLIFSHGNSIFRIDTEGTNYEQLVVDAGVSVIMDFHYNEKRIYWVDLERQLLQRVFLNGSRQERVCNIEKNVSGMAINWINEEVIWSNQQEGIITVTDMKGNNSHILLSALKYPANVAVDPVERFIFWSSEVAGSLYRADLDGVGVKALLETSEKITAVSLDVLDKRLFWIQYNREGSNSLICSCDYDGGSVHISKHPTQHNLFAMSLFGDRIFYSTWKMKTIWIANKHTGKDMVRINLHSSFVPLGELKVVHPLAQPKAEDDTWEPEQKLCKLRKGNCSSTVCGQDLQSHLCMCAEGYALSRDRKYCEDVNECAFWNHGCTLGCKNTPGSYYCTCPVGFVLLPDGKRCHQLVSCPRNVSECSHDCVLTSEGPLCFCPEGSVLERDGKTCSGCSSPDNGGCSQLCVPLSPVSWECDCFPGYDLQLDEKSCAASGPQPFLLFANSQDIRHMHFDGTDYGTLLSQQMGMVYALDHDPVENKIYFAHTALKWIERANMDGSQRERLIEEGVDVPEGLAVDWIGRRFYWTDRGKSLIGRSDLNGKRSKIITKENISQPRGIAVHPMAKRLFWTDTGINPRIESSSLQGLGRLVIASSDLIWPSGITIDFLTDKLYWCDAKQSVIEMANLDGSKRRRLTQNDVGHPFAVAVFEDYVWFSDWAMPSVMRVNKRTGKDRVRLQGSMLKPSSLVVVHPLAKPGADPCLYQNGGCEHICKKRLGTAWCSCREGFMKASDGKTCLALDGHQLLAGGEVDLKNQVTPLDILSKTRVSEDNITESQHMLVAEIMVSDQDDCAPVGCSMYARCISEGEDATCQCLKGFAGDGKLCSDIDECEMGVPVCPPASSKCINTEGGYVCRCSEGYQGDGIHCLDIDECQLGEHSCGENASCTNTEGGYTCMCAGRLSEPGLICPDSTPPPHLREDDHHYSVRNSDSECPLSHDGYCLHDGVCMYIEALDKYACNCVVGYIGERCQYRDLKWWELRHAGHGQQQKVIVVAVCVVVLVMLLLLSLWGAHYYRTQKLLSKNPKNPYEESSRDVRSRRPADTEDGMSSCPQPWFVVIKEHQDLKNGGQPVAGEDGQAADGSMQPTSWRQEPQLCGMGTEQGCWIPVSSDKGSCPQVMERSFHMPSYGTQTLEGGVEKPHSLLSANPLWQQRALDPPHQMELTQ
modifications: Pro-epidermal growth factor
notes: Human recombinant EGF (epidermal growth factor) from R & D systems
For the molecule B1, in assay [1], the RPTC outgrowth result is given as “promoted RPTC outgrowth”. Moreover, the “EGF receptor phosphorylation (tyrosine 1068)” value in assay [2] is given as “did observe phosphorylated EGF receptor”. Moreover, the “formation of lamellipodia and intercellular contacts” value in assay [3] was “increased the formation of lamellipodia and decreased intercellular contacts”. In addition, the “RPTC in S-phase” value in assay [4] is 32%.

These data come from patent publication US8633250B2, “Cell repair and regeneration by suramin and related polysulfonated napthylureas” (MUSC Foundation for Research Development, priority 2006, dated 2014).
